Results as given in article PMC10155992.

Key:
[1] = target: VP12, major outer capsid protein of mud crab reovirus (MCRV) (mud crab reovirus (MCRV)); assay: cryo-EM structure; single-particle cryo-EM of purified MCRV virions, quiescent (qMCRV) and transcribing (tMCRV), in PBS; icosahedral, C1 and D5 reconstructions; atomic models built de novo
[2] = target: VP3, inner capsid protein of mud crab reovirus (MCRV) (mud crab reovirus (MCRV)); assay: as above

| Substance | stoichiometry N [1] | stoichiometry N [2] |
| --- | --- | --- |
| VP12, major outer capsid protein of mud crab reovirus (MCRV) (natural protein) | 3 |  |
| VP3, inner capsid protein of mud crab reovirus (MCRV) (natural protein) |  | 2 |
